Data taken from patent US5591427A, “Human Interleukin-3(Il-3) variants and their use to promote or antagonize IL-3-mediated processes” (Medvet Science Pty. Ltd., priority 1979, dated 1997).

Experiments:
[1] = tested on: chronic myeloid leukaemic (CML) cells; test: Proliferation of chronic myeloid leukaemic (CML) cells, [3H] thymidine incorporation; type: cell-based, human
Experimental: (b ) Proliferation of chronic myeloid leukaemic (CML) cells: Primarily CML cells from one patient were selected for their ability to incorporate [^3 H] thymidine in response to IL-3 as described (Lopez el. al., supra ). Briefly, CML cells were placed at 2×10^5 cells/mL fresh medium containing different concentrations of IL-3. Cells were incubated for 24 hours in a flat bottom 96-well NUNCLON plates (2×10^4 cells/well) before being pulsed with [^3 H] thymidine (0.5 μCi/well) for four more hours at 37° C. The cells were then harvested onto glass filters with a Titertek automated cell harvester and counted into a Beckman liquid scintillation counter. Data are expressed in cpm, and each point is the mean of six replicates.

basophils = test: Histamine release assay with basophils; type: cell-based, human; details: FIG. 4
Experimental: This was carried out as previously described (Lopez et. al., 1990, J. Cell. Physiol., 145, 69-77). Briefly, basophils were obtained from the peripheral blood of normal individuals after dextran sedimentation and centrifugation over Lymphoprep. The percentage of basophils in these preparations varied between 0.2% and 10%. In 300 μl 2×10^4 cells were incubated with 2 μg/ml of purified human IgE. IgE-sensitisedcells were mixed with a goat IgG antihuman IgE (Cappel 0101-0061) and rhIL-3, in a final volume of 500 μl. After incubation for 60 min at 37° C., the cells were centrifuged and 350 μl aliquots removed and stored at -20° C. before assaying for histamine content. Histamine was assayed using a radioertzymatic method essentially as described (Shaff and Beavan, 1979, Anal. Biochem., 94, 425-430). Briefly, samples of 30 μl were diluted with an equal volume of water and mixed with a 30 μl solution comprising 27.5 μl 0.1 M sodium phosphate, pH 7.9, 1.5 μl rat kidney histamine-N-methyltransferase, and 1.0 μl (0.5 μCi)^3 H-methyl-S-adensoyl-L-methionine (Dupont Net 155, low SA). Tritium-labelled methyl-histamine was extracted into chloroform/ether, dried, and counted by scintillation spectrophotometry. […] as nanograms of histamine per milliliter by extrapolation to a standard curve constructed with 10, 5 and 1 ng/ml of histamine (SIGMA).

IL-3R α chain = target: T1, IL-3R α chain (Homo sapiens, UniProt P26951); test: Competition for 125I-IL-3 binding to cloned IL-3R α chain expressed in COS cell transfectants; details: for competition for 125I-IL-3 binding to cells expressing only the α chain: FIG. 6
T1 construct: amplify the complete coding region of the IL-3R alpha chain; expressed in transfected cells; host or cells: COS cells (pCDM8 vector, electroporation)
T1 sequence (P26951 19-378): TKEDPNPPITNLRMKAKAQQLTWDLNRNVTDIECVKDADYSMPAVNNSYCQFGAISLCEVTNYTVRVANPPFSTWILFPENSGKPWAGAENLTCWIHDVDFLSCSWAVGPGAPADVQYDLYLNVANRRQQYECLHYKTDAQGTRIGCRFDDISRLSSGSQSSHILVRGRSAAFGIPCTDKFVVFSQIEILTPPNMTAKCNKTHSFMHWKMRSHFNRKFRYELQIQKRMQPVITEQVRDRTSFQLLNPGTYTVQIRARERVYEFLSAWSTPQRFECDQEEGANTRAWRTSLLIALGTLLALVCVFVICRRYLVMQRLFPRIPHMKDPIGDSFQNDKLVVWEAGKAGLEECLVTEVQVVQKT
Description: PolyA+ RNA was isolated from the human cord blood cell line KMT2. Oligo dT primed double stranded cDNA was synthesised and used as template for PCR amplification. The PCR primers were designed to amplify the complete coding region of the IL-3R alpha chain and also to amplify the coding region of the […]. The PCR products were cloned into the vector pGEM-2 for sequence verification, and then into the eukaryotic expression vector, pCDM8. The […]-containing plasmid was transfected into COS cells by electroporation, either on its own or in conjunction with the […], and after two days the cells were used for binding studies.

fold higher affinity than wild type IL-3 (IL-3R α chain; COS cells transfected with IL-3R α chain cDNA, E. coli produced protein): 10 fold
competition for 125I-IL-3 binding to cells expressing only the α chain (IL-3R α chain): competed for binding more efficiently
B1: M37: human IL-3 mutant, Asp 101 replaced by Ala and Lys 116 by Val (protein, UniProt P08700 20-152, looked up, variant D101A K116V)
Interleukin-3: APMTQTTPLKTSWVNCSNMIDEIITHLKQPPLPLLDFNNLNGEDQDILMENNLRRPNLEAFNRAVKSLQNASAIESILKNLLPCLPLATAAPTRHPIHIKAGDWNEFRRKLTFYLVTLENAQAQQTTLSLAIF
stimulation of CML cell proliferation ([1]; FIG. 2, FIG. 8): more potent than the wild type IL-3
Relative biological activity, PROLIFERATION CML ([1]; concentration of IL-3 mutant giving 50% of biological activity compared to that of wild type IL-3): 1694
increase in biological activity versus wild type ([1]; summary statement over the functional assays of the Table (colonies, CML, monocyte)): 15-20 fold
histamine release from basophils (basophils): increased histamine release
competition for 125I-IL-3 binding to cells expressing only the α chain (IL-3R α chain; listed as IL-3 (Ala^101, Val^116)): more potent at competing for binding than wild-type IL-3
